Laboratory results published in publication PMC10764318.

Legend:
Assay in all cases: BLI
[1] = target: WRAIR-5001 (rhesus macaque | human)
[2] = target: WRAIR-5001 (rhesus macaque)
[3] = target: WRAIR-5004 (rhesus macaque)
[4] = target: WRAIR-5005 (rhesus macaque)
[5] = target: WRAIR-5011 (rhesus macaque)
WRAIR-5011 (rhesus macaque), sequence (VH, as listed by the source, chain 1 of 2): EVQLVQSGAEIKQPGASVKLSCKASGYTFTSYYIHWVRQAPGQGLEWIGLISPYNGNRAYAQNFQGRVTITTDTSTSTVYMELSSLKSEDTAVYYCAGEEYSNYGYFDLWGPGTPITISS
WRAIR-5011 (rhesus macaque), sequence (VL, as listed by the source, chain 2 of 2): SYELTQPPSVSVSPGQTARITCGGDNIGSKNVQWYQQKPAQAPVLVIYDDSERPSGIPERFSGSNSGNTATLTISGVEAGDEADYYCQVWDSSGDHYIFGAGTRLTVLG

WRAIR-5005 (rhesus macaque), sequence (VH, as listed by the source, chain 1 of 2): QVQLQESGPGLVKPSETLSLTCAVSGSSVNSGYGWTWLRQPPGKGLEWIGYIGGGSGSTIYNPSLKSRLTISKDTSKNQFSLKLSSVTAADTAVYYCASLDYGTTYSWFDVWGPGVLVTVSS
WRAIR-5005 (rhesus macaque), sequence (VL, as listed by the source, chain 2 of 2): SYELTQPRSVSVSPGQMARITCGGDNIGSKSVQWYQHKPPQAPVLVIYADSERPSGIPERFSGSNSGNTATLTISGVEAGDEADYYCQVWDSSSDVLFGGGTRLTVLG
WRAIR-5004 (rhesus macaque), sequence (VH, as listed by the source, chain 1 of 2): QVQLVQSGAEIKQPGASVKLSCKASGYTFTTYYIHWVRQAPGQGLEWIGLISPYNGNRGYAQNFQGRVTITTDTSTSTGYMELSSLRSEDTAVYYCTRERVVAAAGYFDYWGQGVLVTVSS
WRAIR-5004 (rhesus macaque), sequence (VL, as listed by the source, chain 2 of 2): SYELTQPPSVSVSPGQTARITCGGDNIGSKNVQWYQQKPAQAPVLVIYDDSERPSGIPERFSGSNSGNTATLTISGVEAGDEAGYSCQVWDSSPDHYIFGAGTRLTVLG
WRAIR-5001 (rhesus macaque), sequence (VH, as listed by the source, chain 1 of 2): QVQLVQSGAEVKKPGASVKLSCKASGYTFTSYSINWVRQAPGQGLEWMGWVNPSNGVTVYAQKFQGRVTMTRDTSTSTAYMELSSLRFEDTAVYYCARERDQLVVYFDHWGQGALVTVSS
WRAIR-5001 (rhesus macaque), sequence (VL, as listed by the source, chain 2 of 2): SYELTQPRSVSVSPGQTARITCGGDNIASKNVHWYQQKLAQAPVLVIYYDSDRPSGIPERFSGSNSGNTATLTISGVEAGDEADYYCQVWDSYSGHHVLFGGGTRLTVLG

Substance: SARS-CoV-1 RBD (domain or fragment)
- Kd [1]: 3.45 nM
- koff [2]: 0.00061 s⁻¹
- kon [2]: 177000 M⁻¹ s⁻¹
- Kd [3]: 28.9 nM
- koff [3]: 0.00458 s⁻¹
- kon [3]: 158000 M⁻¹ s⁻¹
- Kd [4]: 154 nM
- koff [4]: 0.00318 s⁻¹
- kon [4]: 20700 M⁻¹ s⁻¹
- Kd [5]: 12.7 nM
- koff [5]: 0.0014 s⁻¹
- kon [5]: 110000 M⁻¹ s⁻¹
